Measurements taken from US20220194997A1 (CHINESE UNIVERSITY OF HONG KONG, published 2022).

T1: SUMO1(15-55) (human, Where it is the MST target, it carries Alexa Fluor 647 NHS ester on amines (NHS-647); the letters do not show this.)
T1 construct: Fragment 15-55 of human SUMO1; Recombinant SUMO1 fragments were made with an N-terminal His-tag removed by thrombin; also called SUMO(15-55); SUMO1(15-55) peptide
T1 peptide: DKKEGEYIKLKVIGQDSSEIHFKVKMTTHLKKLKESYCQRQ

B1: αsyn(35-45) (peptide)
peptide: EGVLYVGSKTK
notes: Synthesized peptide fragment of α-synuclein; also called β1 strand peptide; β1-strand peptide-αsyn (35-45)
B2: αsyn(74-84) (peptide)
peptide: VTAVAQKTVEG
notes: Peptide fragment of α-synuclein; also called β4 strand peptide
B3: αsyn(48-60) (peptide)
peptide: VVHGVATVAEKTK
notes: Synthesized peptide; also called β2-strand peptide αsyn(48-60); SIM 2 (residues 48-60)

Assays:
SUMO1(15-55) [1] = biological target: T1, SUMO1(15-55); assay: MST; NHS-647 labelled SUMO1(15-55) as target, peptide titrated as ligand
Description: The labelling reaction was performed according to the manufacturer's instructions. Unreacted dye was removed with the dye removal column supplied in the Protein Labelling Kit RED-NHS (NanoTemper Technologies) or desalting column (Bio-Rad). The purity was monitored by measuring the ratio of protein to dye (for example, spectroscopically by measuring absorption at 280 nm for protein and 650 nm for the dye; molar absorbance: 239,000 M⁻¹ cm⁻¹) after the clean-up procedure. The labelled targets were adjusted to appropriate concentration for detection. The ligands were dissolved in reaction buffer and a series of 16 1:1 dilutions was prepared. For the measurement, each ligand dilution was mixed with one volume of labelled protein target. After 10 min incubation, the samples were loaded into standard or premium Monolith NT.115 Capillaries (NanoTemper Technologies). MST was measured using a Monolith NT.115 instrument (NanoTemper Technologies) at an ambient temperature of 25° C. Instrument parameters were adjusted to 20% LED power and medium MST power. Data of three independently pipetted measurements were analyzed (MO.Affinity Analysis software version 2.1.3, NanoTemper Technologies) using the signal from an MST-on time of 5 s.

[2] = biological target: human wild-type α-synuclein (full-length) (human, UniProt P37840 1-140); assay: MST (FIG. 7)
SUMO1(15-55) [3] = biological target: T1, SUMO1(15-55); assay: MST (FIG. 11b)
Description: Unreacted dye was removed with desalting column (2K MWCO, Bio-Rad). The purity was monitored by measuring the ratio of protein to dye after the clean-up procedure. The labelled targets were adjusted to appropriate concentration for detection and kept in ddH2O with 0.1% Tween 20, meanwhile, the ligands were maintained in corresponding buffer (peptides: ddH2O; α-synuclein proteins: 20 mM HEPES, 150 mM NaCl, pH 7.4). For each assay, unlabelled ligand was mixed with equal volume of labelled protein target at 16 different serially diluted concentrations at room temperature.

Row | Binder | Kd (SUMO1(15-55) [1]) [nM] | also measured
1 | B1 | 1150 | 
2 | SSEIHFKVKMTTHLKKLKESYCQRQ (also called SUMO(31-55)) [SUMO1(31-55)] |  | binding result [2]: binds
3 | B2 | 2210 | 
4 | B3 |  | binding result (SUMO1(15-55) [3]): binds
